The labels stand for the following.
B1: CLIP-170 CG1 fragment (58-140), P30622 K98E (protein)
chain: FRVGERVWVNGNKPGFIQFLGETQFAPGQWAGIVLDEPIGENDGSVAGVRYFQCEPLKGIFTRPSKLTRKVQAEDEANGLQTT
B2: CLIP-170 CG1 fragment (58-140), P30622 K123A (protein)
chain: FRVGERVWVNGNKPGFIQFLGETQFAPGQWAGIVLDEPIGKNDGSVAGVRYFQCEPLKGIFTRPSALTRKVQAEDEANGLQTT
B3: CLIP-170 CG1 fragment (58-140), P30622 K98E; N99D (protein)
chain: FRVGERVWVNGNKPGFIQFLGETQFAPGQWAGIVLDEPIGEDDGSVAGVRYFQCEPLKGIFTRPSKLTRKVQAEDEANGLQTT
B4: CLIP-170 CG2 fragment (206-288), P30622 K238A (protein)
chain: KKGERELKIGDRVLVGGTKAGVVRFLGETDFAAGEWCGVELDEPLGKNDGAVAGTRYFQCQPKYGLFAPVHKVTKIGFPSTTP
B5: CLIP-170 CG2 fragment (206-288), P30622 K277A (protein)
chain: KKGERELKIGDRVLVGGTKAGVVRFLGETDFAKGEWCGVELDEPLGKNDGAVAGTRYFQCQPKYGLFAPVHAVTKIGFPSTTP
B6: CLIP-170 CG2 fragment (206-288), P30622 K224A (protein)
chain: KKGERELKIGDRVLVGGTAAGVVRFLGETDFAKGEWCGVELDEPLGKNDGAVAGTRYFQCQPKYGLFAPVHKVTKIGFPSTTP
B7: CLIP-170 CG2 fragment (206-288), P30622 K252E; N253D (protein)
chain: KKGERELKIGDRVLVGGTKAGVVRFLGETDFAKGEWCGVELDEPLGEDDGAVAGTRYFQCQPKYGLFAPVHKVTKIGFPSTTP
B8: CLIP-170 CG2 fragment (206-288), P30622 N253A (protein)
chain: KKGERELKIGDRVLVGGTKAGVVRFLGETDFAKGEWCGVELDEPLGKADGAVAGTRYFQCQPKYGLFAPVHKVTKIGFPSTTP
B9: CLIP-170 CG2 fragment (206-288), P30622 K252A (protein)
chain: KKGERELKIGDRVLVGGTKAGVVRFLGETDFAKGEWCGVELDEPLGANDGAVAGTRYFQCQPKYGLFAPVHKVTKIGFPSTTP

One test deals with taxol-stabilized microtubules polymerized from porcine brain tubulin, P02550. Briefly: MT-binding assay (cosedimentation). The note with it: chain shown with the change; 5 μM CG1 mutant, […] taxol–MTs; parent: est. 1.0; read off a plot.
taxol-stabilized microtubules polymerized from porcine brain tubulin, P02550, sequence (P02550 whole entry, chain 1 of 2): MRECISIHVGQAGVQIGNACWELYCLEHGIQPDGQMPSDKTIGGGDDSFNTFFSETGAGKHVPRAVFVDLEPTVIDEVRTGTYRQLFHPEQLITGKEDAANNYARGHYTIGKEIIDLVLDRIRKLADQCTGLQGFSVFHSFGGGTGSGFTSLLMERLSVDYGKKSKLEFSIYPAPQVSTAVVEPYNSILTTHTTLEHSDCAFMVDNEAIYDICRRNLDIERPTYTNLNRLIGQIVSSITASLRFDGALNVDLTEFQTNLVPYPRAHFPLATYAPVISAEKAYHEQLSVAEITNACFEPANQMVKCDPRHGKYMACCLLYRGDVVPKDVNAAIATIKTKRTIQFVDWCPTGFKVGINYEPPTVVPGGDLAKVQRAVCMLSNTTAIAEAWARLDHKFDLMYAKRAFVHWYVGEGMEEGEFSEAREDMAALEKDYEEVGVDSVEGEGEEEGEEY
taxol-stabilized microtubules polymerized from porcine brain tubulin, P02550, sequence (chain, as listed by the source, chain 2 of 2): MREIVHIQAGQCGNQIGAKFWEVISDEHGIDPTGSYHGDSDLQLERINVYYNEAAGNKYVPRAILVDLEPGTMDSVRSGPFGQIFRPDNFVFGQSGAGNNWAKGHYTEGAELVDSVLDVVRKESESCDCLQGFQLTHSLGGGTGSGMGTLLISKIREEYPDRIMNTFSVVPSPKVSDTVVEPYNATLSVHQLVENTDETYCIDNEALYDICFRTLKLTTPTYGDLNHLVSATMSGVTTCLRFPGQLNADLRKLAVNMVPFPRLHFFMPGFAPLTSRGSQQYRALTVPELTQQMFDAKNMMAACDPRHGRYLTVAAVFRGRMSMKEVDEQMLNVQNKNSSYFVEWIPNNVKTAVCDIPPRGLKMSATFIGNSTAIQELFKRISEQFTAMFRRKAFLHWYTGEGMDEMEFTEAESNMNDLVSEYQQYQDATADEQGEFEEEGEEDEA
For the molecule B1, the ratio to parent was determined as 0.28. Same read-out and setting: then B2, with 0.52. Same read-out and setting: then B3, with 0.42.

The test is the same for the next values; noted with them: chain shown with the change; 5 μM CG2 mutant, […] taxol–MTs; parent: est. 1.0; read off a plot.
With B4, the ratio to parent turned out to be 0.97. Same read-out and setting: then B5, with 0.75; and B6, with 0.4. On the same count and under the same terms, then B7, with 0.23; and B8, with 0.8.

B9: the ratio to parent was found to be 0.28.

These data come from paper PMC9062740.
